Reference: the supplement of paper PMC9170038

System: MS2 coat protein
Test: apparent KD of MS2 coat protein; higher = weaker reporter binding
Settings: Eterna round: R107
Procedure, shortened: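 Apparent KD was obtained for each design as the median of normalised binding-curve fits over its clusters. RNA switches transcribed on-chip from Illumina sequencing clusters were titrated with SNAP-549-labelled MS2 coat protein (twofold steps, 0.7 or 1.5 nM to 3 µM) in 100 mM Tris-HCl pH 7.5, 80 mM KCl, 4 mM MgCl2, without or with constant ligand.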

[1] = input ligand: theophylline 20 uM
[2] = input ligand: tryptophan 2.4 mM
[3] = input ligand: theophylline 2 mM

Row | Sequence | apparent KD of MS2 coat protein (input ligand: arginine 13.2 mM) | apparent KD of MS2 coat protein [1] | apparent KD of MS2 coat protein [2] | apparent KD of MS2 coat protein (input ligand: none) | apparent KD of MS2 coat protein [3]
1 | GGGCCUGUAAGCAGACCCACAGCGGGUGAUACCAGCAAUAAAACUUGCCCUUGGCAGCACACAGCUACAUGAGGAUCACCCAUGU [Rausis] | 36.4 nM | 92.9 nM | 82.4 nM |  | 
2 | GGGCGAGUGGCGCGGCGUGCUCCGCUCCGUCGAGGACCGGUACGGCCGCCACUCGACAUGAGGAUCACCCAUGUGCGAGCUCGCG [#1 Exclusion - Tryptophan A Attempt #12 (HarryS)] | 24.7 nM | 71.7 nM | 39.8 nM | 52.5 nM | 101 nM
3 | GGGUACAUCGCGGCCGCCACUCAUGUAAAUACCUGAGGAUCACCCUGGUCGAUGGAGACAUCGAAGAGGACCGGGUGAUGUACCG | 91.2 nM | 371 nM | 44.6 nM | 252 nM | 528 nM
4 | GGGUGGUAGGCGGCCGCCACUGAUUUUCAUAUAUAUAUAACAUGAGGAUCACCCAUGUAGAUAUGCAGGACCGGGCCUGUUGUUU [aaaL] | 26.6 nM | 39.6 nM |  |  | 37.7 nM
5 | GGUCUCUGGAGCGAUACCAGCUUAAUUGUACUGGCCAGGUACAUGAGGAUCACCCAUGUAAGCCCUUGGCAGCGCUCCAGAGACC [#1 Exclusion - Theophylline B Attempt #12 (HarryS)] | 10.6 nM | 13.6 nM | 11.6 nM | 12.1 nM | 24 nM
6 | GGUGAUCCGUGCUGCCGGAUCAUCGGUGAUACCAGCAUCGAAAGAUGCCCUUGGCAGCACCAACAUGAGGAUCACCCAUGUAAUA [(M)'-(T)'-(M)''-(T1)-(T2)-(M1)-(M2)_Design5] | 46 nM | 231 nM | 163 nM |  | 
7 | GGUGGAGGCGUGGGACUUGUCUGAACGGAUACCAGCCACAUCACGGGCCCUUGGCAGCUGUACAUGAGGAUCACCCAUGUCGGUC [Atestevete] | 33.6 nM | 45.2 nM | 34.8 nM |  | 
8 | GGUGGCGGGACUGAUACCAGCCACCACCGAUAGACCACAUGAGGAUCACCCAUGUUGGGUGGCCCUUGGCAGCAGUCUUGCUGCC [#1 Same State - Theophylline B Attempt #12 (HarryS)] | 24.2 nM | 432 nM | 907 nM | 206 nM | 1880 nM
9 | GGUGGCGUGACGGAUACCAGCCACCGCGGCAACGCAACAUGAGGAUCACCCAUGUUGGGUGGCCCUUGGCAGCUGUCGUGCGGCG [#1 Same State - Theophylline B Attempt #23 (HarryS)] | 47.4 nM | 79.3 nM | 78.1 nM | 86.2 nM | 27.5 nM
10 | GGUUACUCUACGGCCGCCACUGAAAAGUAAAUAUUAAUGUACAUGACAUGAGGAUCACCCAUGUACAGGACCGGGUAGUGUAACC [Tryptophan B 13] | 64.8 nM | 102 nM |  |  | 108 nM
11 | GGUUGGUGUAGAGAUAUAUUGAUUACUGAAGGAGCGGGAAUAAACCCAGGUAGGUCGCAGAGAUCCACAUGAGGAUCACCCAUGU [!0.O] | 32 nM | 54.6 nM | 35.3 nM | 36.9 nM | 53 nM
12 | GUAAGAGUAGGAAGGAGCGCUUUACAUGAGGAUCACCCAUGUGUGCCCUCAAUUUCGGUAAAGCAGGUAGGUCGCCUAAACUUGC [Tiqurabi] | 31.2 nM | 175 nM | 57 nM | 34.5 nM | 67.5 nM
13 | GUACGAGUUGACUGUGAGACUGGCGUGGAAGGAGCGCACGGAGGUGCAGGUAGGUCGCCACAUGAGGAUCACCCAUGUCGGGCCG [Qutigeveat] | 19.3 nM | 31.6 nM | 26.7 nM | 26.4 nM | 40.1 nM
14 | GUAGCUAUCGCGGCCGCCACUAAACCGGAAACGGAACAGGAGGAUCACCCUUGUGGCGAAAGCCAUAGGACCGGGCGAUAGCUAC [TryBS - Double Magnet system] | 224 nM | 457 nM | 46.3 nM |  | 735 nM
15 | GUCAGUUCUCAUGAUACCAGACCUGCCUCGGACAUGAGGAUCACCCAUGUACCCAAGCGAGUCCCUUGGCAGCAUGUGGCUUAAA [Ririatre] | 24.7 nM | 19.4 nM | 20.7 nM |  | 
16 | GUGACUUACGGGCGCCAUUUGUAAUAGGAAGGAGCGGCGAAAUAGCCAGGUAGGUCGCCUAUACAUGAGGAUCACCCAUGUCACC [Esatbileor] | 46.9 nM | 105 nM | 77.8 nM | 91.9 nM | 105 nM
17 | GUGUCCUAGUCGGCCGCCACUGGUACGAAUACCUUCACCCGUGUGCACAUGAGGAUCACCCAUGUCAGGACCGGGACUAGGGUGU [SSTryp B #24] | 9.87 nM | 11.4 nM | 9.72 nM | 10 nM | 14.1 nM
18 | GUGUGGAGCUCGGCCGCCACUCAAACAUGAGGAUCACCCAUGUAAAACAUGAGGAUCACCCAUGUGAGGACCGGGAGAAACACGA [Exclusion Tryptophan B GF8] | 179 nM | 329 nM |  |  | 408 nM
19 | GUUAAUAGAAAACUAUUAACAGUGGGUGAACGAGGACCGGUACGGCCGCCACUCGGACAUGAGGAUCACCCAUGUCCAUGUGAAA [AstrosExyTryA#5] | 18.6 nM | 16.9 nM | 35.4 nM | 16.9 nM | 15.6 nM
20 | GUUACCAUGUCGGCCGCCACUAACAAGGUUAUGGCAAGUCUACACGACAUGAGGAUCACCCAUGUUAGGACCGGGACCCAUACCC [theeternabot_exclusion_MS2_Trp_B_44] | 12.2 nM | 17.5 nM |  |  | 16.2 nM
21 | GUUAGUUACACGGCCGCCACUCUUUGGCUUGGCUCAAGCUCCCAACAUGAGGAUCACCCAUGUCAGAGGACCGGGUGAACAACGU [theeternabot_sameState_MS2_Trp_B_28] | 56.1 nM | 180 nM |  |  | 205 nM
